We go through 39 variants from the Human Domainome abundance scans (Beltran et al. 2025).

± gives the uncertainty stated by the source.

B1: Homeobox protein cut-like 2, residues 895 to 963; numbered along this chain, O14529 (parent)
chain: EVDTLELTRQVKEKLAKNGICQRIFGEKVLGLSQGSVSDMLSRPKPWSKLTQKGREPFIRMQLWLSDQL

In this data set the parent is B1. The data set can be described thus: abundance fitness (aPCA) (normalised: wild type 0, dead -1); higher = more abundant; growth selection in yeast, the domain comes from the species named. The following applies: Homo sapiens.
As for EVDTLELTRQVKEKLAKNGICQRIFGEKVLGWSQGSVSDMLSRPKPWSKLTQKGREPFIRMQLWLSDQL [L32W], the abundance fitness was -0.043 ± 0.063.

With EVDTLELTRQVKEKLAKNGICQRIFGEKVLGLSQGSKSDMLSRPKPWSKLTQKGREPFIRMQLWLSDQL [V37K], the abundance fitness was -0.232 ± 0.069. For EVDTLELTRQVKDKLAKNGICQRIFGEKVLGLSQGSVSDMLSRPKPWSKLTQKGREPFIRMQLWLSDQL [E13D] the value was 0.117 ± 0.092. The value for EVDTLELTRQVKEKLAKNGICQRIFGEKVLGLLQGSVSDMLSRPKPWSKLTQKGREPFIRMQLWLSDQL [S33L] was -0.057 ± 0.03; that for EVDTLELTRQVKEKLAKNGICQRIFGEKVLGLFQGSVSDMLSRPKPWSKLTQKGREPFIRMQLWLSDQL [S33F] was -0.009 ± 0.047; that for EVDTLELTRQVKEKLAKNGIVQRIFGEKVLGLSQGSVSDMLSRPKPWSKLTQKGREPFIRMQLWLSDQL [C21V] was -0.174 ± 0.041. Take EVDTLELTRQVKEKLAKNGGCQRIFGEKVLGLSQGSVSDMLSRPKPWSKLTQKGREPFIRMQLWLSDQL [I20G]: the abundance fitness is -0.412 ± 0.057. For EVDTLELTRQVKEKLAKNGICQRIFGEKVLGLSQGSVSDMLSRPKPWSKLTQKGREPFIRMQLWLSDIL [Q68I] the value was -0.142 ± 0.047; for EVDTLELTRQVKEKLAKNGICQRIFGEKVLGLSQGSVSDMLSRPKPWSKLTQKGREPFIRMQLWLSDYL [Q68Y], -0.105 ± 0.044; for EVDTLELTRQVKEKLAKNGICQRIFGEKVLGLSQGSVSDMLSRPKPWSKLIQKGREPFIRMQLWLSDQL [T51I], -0.007 ± 0.053. The value for EVDTLELTRQVKEKLAKNGICQRIFGEKVLGLSQGSVSDMLSRPKPWSKLCQKGREPFIRMQLWLSDQL [T51C] was -0.375 ± 0.26. For EVDTLELTRCVKEKLAKNGICQRIFGEKVLGLSQGSVSDMLSRPKPWSKLTQKGREPFIRMQLWLSDQL [Q10C] the value was -0.343 ± 0.082; for EVDTLELTRHVKEKLAKNGICQRIFGEKVLGLSQGSVSDMLSRPKPWSKLTQKGREPFIRMQLWLSDQL [Q10H], -0.228 ± 0.057.

With EVDTLELTRQVKEKLAKNGICQRIFGEKVLGLSQGSVSDMLSRPKPWSKLTQKGREPFIRMQLWLGDQL [S66G], the abundance fitness was 0.048 ± 0.073.

With EVDTLELIRQVKEKLAKNGICQRIFGEKVLGLSQGSVSDMLSRPKPWSKLTQKGREPFIRMQLWLSDQL [T8I], the abundance fitness is -0.107 ± 0.044. EVDTLELHRQVKEKLAKNGICQRIFGEKVLGLSQGSVSDMLSRPKPWSKLTQKGREPFIRMQLWLSDQL [T8H]: the abundance fitness was -0.19 ± 0.046.

Take EVDTLELTRQAKEKLAKNGICQRIFGEKVLGLSQGSVSDMLSRPKPWSKLTQKGREPFIRMQLWLSDQL [V11A]: the abundance fitness is -0.224 ± 0.041. Take EVDTLELTRQLKEKLAKNGICQRIFGEKVLGLSQGSVSDMLSRPKPWSKLTQKGREPFIRMQLWLSDQL [V11L]: the abundance fitness is -0.27 ± 0.035.

As for EVDTLELTRQVKEKLAKNGICQRIFGWKVLGLSQGSVSDMLSRPKPWSKLTQKGREPFIRMQLWLSDQL [E27W], the abundance fitness was -0.091 ± 0.032. The value for EVDTLELTRQVKEKLAKNGICQRIFGEKVLGLSQGSVSDMLSRPKPWSKLTQKGREPFIRMQLNLSDQL [W64N] was -0.678 ± 0.28. The value for EVDTLELTRQVKEKLAKNGICQRIFGEKVLGLSQGSVSDMLSRPKPWSKLTQKGREPFILMQLWLSDQL [R60L] was -0.215 ± 0.027. The value for EVDTLELTRQVKEKLAKNGICQRIFGEKVLGLSQGSVSDMLSRPKPWSKLTQKGREPFIMMQLWLSDQL [R60M] was -0.38 ± 0.042; that for EVDTLELTRQVKEKLAKNAICQRIFGEKVLGLSQGSVSDMLSRPKPWSKLTQKGREPFIRMQLWLSDQL [G19A] was -0.32 ± 0.095; that for EVDTLELTRQVKEKLAKNGICQRIFGEKVLGLSQGTVSDMLSRPKPWSKLTQKGREPFIRMQLWLSDQL [S36T] was 0.002 ± 0.028. For EVDTLELTRQVKEKLAKNGICQRIFGEKVLGLSQGSVSDMLSRPKPWSKLTWKGREPFIRMQLWLSDQL [Q52W], the abundance fitness was -0.187 ± 0.052. The value for EVDTLELTRQVKEKLAKNGICQRIFGEKVLGLSQGSVSDMLSRPKPWSKLTMKGREPFIRMQLWLSDQL [Q52M] was -0.106 ± 0.044; that for EVDTLELTRQVKEKLAKNGICQRIFGEKVLGLSQGSVSDMQSRPKPWSKLTQKGREPFIRMQLWLSDQL [L41Q] was -0.303 ± 0.037.

Consider EVDTLELTRQVKEKLAKNGICQRIFGEKVLGLSQGSVSDMTSRPKPWSKLTQKGREPFIRMQLWLSDQL [L41T], for which the abundance fitness is -0.505 ± 0.035. For ESDTLELTRQVKEKLAKNGICQRIFGEKVLGLSQGSVSDMLSRPKPWSKLTQKGREPFIRMQLWLSDQL [V2S] the value was -0.019 ± 0.033; for EVDTLELTRQVKEKLAKNGICQRIFGEKVLGLSQGSVSDMLSRPKPWSKLTQKGCEPFIRMQLWLSDQL [R55C], -0.625 ± 0.12. For EVDTLELTRQVKEKLAKNGICQRIFGEKVVGLSQGSVSDMLSRPKPWSKLTQKGREPFIRMQLWLSDQL [L30V] the value was -0.275 ± 0.03.

As to EVDTLELTRQVKEKLAKNGICQRIFGEKVMGLSQGSVSDMLSRPKPWSKLTQKGREPFIRMQLWLSDQL [L30M], the abundance fitness was -0.178 ± 0.036.

Take EVDTLELTRQVKEKLAKNGICQRIFGEKVLGLSQGSVSDMLSRPKPWSKLTQKGREWFIRMQLWLSDQL [P57W]: the abundance fitness is -0.102 ± 0.088. As to EVDTLELTRQVKEKLAKNGICQRIFGEKVLGLSQGSVSDMLSREKPWSKLTQKGREPFIRMQLWLSDQL [P44E], the abundance fitness was -0.665 ± 0.075. For the variant EVDTLELTRQVKEKLAKNGICQRIFGEKVLGLSQGSVSDMLSRGKPWSKLTQKGREPFIRMQLWLSDQL [P44G], the abundance fitness was -0.261 ± 0.058. For EVDTLELTRQVKEKLAKNGICQRIFGEKVLGLSNGSVSDMLSRPKPWSKLTQKGREPFIRMQLWLSDQL [Q34N] the value was 0.046 ± 0.038; for EVDTLELTRQVKEKLAKNGICQRIFGEKVLGLSQGSVSDMLSRPKPWFKLTQKGREPFIRMQLWLSDQL [S48F], -0.19 ± 0.038; for EVDTLELTRQVKEKLAKNGICQRIFGEKVLGLSQGSVSDMLSRPKPWSKLTQKGREPFIRMQVWLSDQL [L63V], -0.103 ± 0.06.

On to EVDTLELTRQVKEKLAKNGICPRIFGEKVLGLSQGSVSDMLSRPKPWSKLTQKGREPFIRMQLWLSDQL [Q22P], for which the abundance fitness was -0.073 ± 0.06.
